# Patent publication US20100028924A1 (RAPPAPORT FAMILY INSTITUTE RESEARCH IN THE MEDICAL SCIENCES, published 2010)
# Positions count from the first letter of the chain named.
# B1: wt rePON1-192K (enzyme)
# chain: MAKLTALTLLGLGLALFDGQKSSFQTRFNVHREVTPVELPNCNLVKGVDNGSEDLEILPNGLAFISSGLKYPGIMSFDPDKSGKILLMDLNEEDPVVLELGITGNTLDISSFNPHGISTFTDEDNTVYLLVVNHPDSSSTVEVFKFQEEEKSLLHLKTIRHKLLPSVNDIVAVGPEHFYATNDHYFADPYLKSWEMHLGLAWSFVTYYSPNDVRVVAEGFDFANGINISPDGKYVYIAELLAHKIHVYEKHANWTLTPLKSLDFDTLVDNISVDPVTGDLWVGCHPNGMRIFYYDPKNPPGSEVLRIQDILSEEPKVTVVYAENGTVLQGSTVAAVYKGKLLIGTVFHKALYCEL
# B2: rePON1-192Q (enzyme)
# chain: B1 chain with K192Q
# B3: rePON1-192R (enzyme)
# chain: B1 chain with K192R
# Molecular target: rHDL-apoA-I (reconstituted discoidal HDL particles carrying apolipoprotein A-I)
# Assay: cell-based or functional assay
row,increase of cholesterol efflux from macrophages relative to rHDL-apoA-I alone [%],Binder
1,93,B1
2,30,B2
3,67,B3
